We go through 30 molecules from article PMC11417369, “DNA sequence and chromatin differentiate sequence-specific transcription factor binding in the human malaria parasite Plasmodium falciparum”.

The labels stand for the following.
B1: GTGCAC_site10028 (dsDNA)
DNA 1: ATTATAATTACTCTAGTGCATTATAAATATGAATAA
DNA 2: TTATTCATATTTATAATGCACTAGAGTAATTATAAT
B2: GTGCAC_site10160 (dsDNA)
DNA 1: ATTCATTTACCAATGGTGCAATATATTTTTATAATG
DNA 2: CATTATAAAAATATATTGCACCATTGGTAAATGAAT
B3: GTGCAC_site9926 (dsDNA)
DNA 1: GCAGCAGCATTTTCAGTGCATTATTATATTGTTCAT
DNA 2: ATGAACAATATAATAATGCACTGAAAATGCTGCTGC
B4: GTGCAC_site10289 (dsDNA)
DNA 1: TTTAAAATACAGAAGGTGCATTTAACATATTTGTAT
DNA 2: ATACAAATATGTTAAATGCACCTTCTGTATTTTAAA
B5: GTGCAC_site9773 (dsDNA)
DNA 1: TTAAAAATTATATAAGTGCATTAATATTTAGAACAA
DNA 2: TTGTTCTAAATATTAATGCACTTATATAATTTTTAA
B6: GTGCAC_site9417 (dsDNA)
DNA 1: TAATATTATTTTTCAGTGCAATATAACCTTAGAATT
DNA 2: AATTCTAAGGTTATATTGCACTGAAAAATAATATTA
B7: GTGCAC_site10036 (dsDNA)
DNA 1: TCATAGGGGTAGAAGGTGCAATAAAAAAGAAGAAAA
DNA 2: TTTTCTTCTTTTTTATTGCACCTTCTACCCCTATGA
B8: GTGCAC_site9443 (dsDNA)
DNA 1: ACCATATATTAAAAAGTGCATTAAATATATAAATAT
DNA 2: ATATTTATATATTTAATGCACTTTTTAATATATGGT
B9: GTGCAC_site10150 (dsDNA)
DNA 1: TTTCCCTCAAATAAAGTGCATTATGATTTTAATTTA
DNA 2: TAAATTAAAATCATAATGCACTTTATTTGAGGGAAA
B10: GTGCAC_site10204 (dsDNA)
DNA 1: GGAAAATACATTCCAGTGCATTAATTTATTCAACGT
DNA 2: ACGTTGAATAAATTAATGCACTGGAATGTATTTTCC
B11: GTGCAC_site10551 (dsDNA)
DNA 1: ATATATAAAAATTAGGTGCATTAAATTAAAATATAT
DNA 2: ATATATTTTAATTTAATGCACCTAATTTTTATATAT
B12: GTGCAC_site10703 (dsDNA)
DNA 1: TTTTTAATTTCAATGGTGCAGTAATAATATAATAGT
DNA 2: ACTATTATATTATTACTGCACCATTGAAATTAAAAA
B13: GTGCAC_site9852 (dsDNA)
DNA 1: ATAATATATAATATAGTGCATTATTTATTAATTAAT
DNA 2: ATTAATTAATAAATAATGCACTATATTATATATTAT
B14: GTGCAC_site9564 (dsDNA)
DNA 1: GAAAATTTAAAAAGAGTGCATTATATGTTTGAATAT
DNA 2: ATATTCAAACATATAATGCACTCTTTTTAAATTTTC
B15: GTGCAC_site10757 (dsDNA)
DNA 1: TATTAATTTCGGGAAGTGCATTATGTTTATAGAATA
DNA 2: TATTCTATAAACATAATGCACTTCCCGAAATTAATA
B16: GTGCAC_site9970 (dsDNA)
DNA 1: ACTGTAATATTGAAAGTGCATTAAAGTGTATATTAT
DNA 2: ATAATATACACTTTAATGCACTTTCAATATTACAGT
B17: GTGCAC_site9746 (dsDNA)
DNA 1: TATAATTAATTAGAAGTGCATTAGGTAACAACTGTC
DNA 2: GACAGTTGTTACCTAATGCACTTCTAATTAATTATA
B18: GTGCAC_site9607 (dsDNA)
DNA 1: TATTCAGGTCCAATGGTGCAATATATTTTTGTAATA
DNA 2: TATTACAAAAATATATTGCACCATTGGACCTGAATA
B19: GTGCAC_site10447 (dsDNA)
DNA 1: TAATGAGCGCTTGTAGTGCATTATATTCAAAAATAT
DNA 2: ATATTTTTGAATATAATGCACTACAAGCGCTCATTA
B20: GTGCAC_site10692 (dsDNA)
DNA 1: ATTATTTATATTATGGTGCATAATTTTGGGTTTCTT
DNA 2: AAGAAACCCAAAATTATGCACCATAATATAAATAAT
B21: GTGCAC_site9974 (dsDNA)
DNA 1: ATATGAAGTTATATAGTGCACATGTACAACCAAATC
DNA 2: GATTTGGTTGTACATGTGCACTATATAACTTCATAT
B22: GTGCAC_site9803 (dsDNA)
DNA 1: GTAGTAATAAATCTAGTGCATTATATATAACAAAAA
DNA 2: TTTTTGTTATATATAATGCACTAGATTTATTACTAC
B23: GTGCAC_site9463 (dsDNA)
DNA 1: ATTAAAAAATCCATAGTGCACTACGATAGGTTCCGA
DNA 2: TCGGAACCTATCGTAGTGCACTATGGATTTTTTAAT
B24: GTGCAC_site9995 (dsDNA)
DNA 1: AAAGGAAAAATCCAAGTGCATTATTATTTTCACAAA
DNA 2: TTTGTGAAAATAATAATGCACTTGGATTTTTCCTTT
B25: GTGCAC_site10007 (dsDNA)
DNA 1: TTTCTTTTTTCTTCAGTGCATTAAAATTAACAAAAG
DNA 2: CTTTTGTTAATTTTAATGCACTGAAGAAAAAAGAAA
B26: GTGCAC_site9491 (dsDNA)
DNA 1: AATAATAAAATAAAAGTGCATTAATTATAATTCTTT
DNA 2: AAAGAATTATAATTAATGCACTTTTATTTTATTATT
B27: GTGCAC_site10233 (dsDNA)
DNA 1: TTTTTTAAATTTAAAGTGCATTATTATATATTTGTA
DNA 2: TACAAATATATAATAATGCACTTTAAATTTAAAAAA
B28: GTGCAC_site10132 (dsDNA)
DNA 1: AGTGTGTGTAATAAAGTGCATTAAAAATGACACGTA
DNA 2: TACGTGTCATTTTTAATGCACTTTATTACACACACT
B29: GTGCAC_site10102 (dsDNA)
DNA 1: TATATTTATATATTAGTGCACTTTTTGTTAATTTTT
DNA 2: AAAAATTAACAAAAAGTGCACTAATATATAAATATA
B30: GTGCAC_site10087 (dsDNA)
DNA 1: TGTCACTACAAATGAGTGCATTAAATAATTTGGAAA
DNA 2: TTTCCAAATTATTTAATGCACTCATTTGTAGTGACA

For the data set, the target named is AP2-I D3 (Plasmodium falciparum, UniProt Q8IJW6 910-1027). Nature of the data set: gcPBM; about 25 ug protein; PBS, 1% milk, 0.2 mg/ml BSA, salmon testes DNA, 0.03% Triton X-100. The conditions noted are these: tags: N-terminal GST (pGEX-4T-1), kept; label: surface-attached array probe.
Consider B1, for which the binding signal was 12 ln median PBM intensity, better of two orientations.
To B2 belongs 12 ln median PBM intensity, better of two orientations; to B3, 11.6 ln median PBM intensity, better of two orientations; to B4, 11.6 ln median PBM intensity, better of two orientations.
To B5 belongs 12 ln median PBM intensity, better of two orientations; to B6, 11.3 ln median PBM intensity, better of two orientations; to B7, 12 ln median PBM intensity, better of two orientations.
In the case of B8, the binding signal is 12 ln median PBM intensity, better of two orientations.
To B9 belongs 12 ln median PBM intensity, better of two orientations; to B10, 11.8 ln median PBM intensity, better of two orientations.
Regarding B11, the binding signal is 12 ln median PBM intensity, better of two orientations.
As for B12, the binding signal is 12 ln median PBM intensity, better of two orientations.
To B13 belongs 12 ln median PBM intensity, better of two orientations.
With B14, the binding signal was 12 ln median PBM intensity, better of two orientations.
B15: the binding signal was 11.7 ln median PBM intensity, better of two orientations.
Regarding B16, the binding signal was 12 ln median PBM intensity, better of two orientations.
To B17 belongs 11.5 ln median PBM intensity, better of two orientations; to B18, 12 ln median PBM intensity, better of two orientations.
To B19 belongs 12 ln median PBM intensity, better of two orientations; to B20, 11.6 ln median PBM intensity, better of two orientations; to B21, 11.4 ln median PBM intensity, better of two orientations.
Turning to B22, the binding signal was 12 ln median PBM intensity, better of two orientations.
To B23 belongs 12.1 ln median PBM intensity, better of two orientations.
To B24 belongs 11.4 ln median PBM intensity, better of two orientations; to B25, 12 ln median PBM intensity, better of two orientations.
To B26 belongs 11.9 ln median PBM intensity, better of two orientations.
B27: the binding signal was 12 ln median PBM intensity, better of two orientations.
To B28 belongs 12 ln median PBM intensity, better of two orientations; to B29, 11.8 ln median PBM intensity, better of two orientations; to B30, 12 ln median PBM intensity, better of two orientations.
